Test: yeast display, Sf9 membrane polyspecificity reagent, FACS + sequencing; frameworks hold sequencing errors
How it was run: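 Nanobodies came from a synthetic yeast display library in Saccharomyces cerevisiae BJ5465, induced with galactose for 36–48 hours and stained for 1 hour at 4 °C with 10% biotinylated, detergent-solubilized Sf9 membrane reagent. Cells were enriched on streptavidin microbeads and then FACS-sorted, with low and high (top ~1%) gates set on anti-HA fluorescence for expression and streptavidin fluorescence for reagent binding. Each polyreactivity label reflects the gate a clone came from. Genes were amplified by colony PCR, sequenced by MiSeq 2 × 250 and filtered by CDR length.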

Sequence	polyreactivity (PSR sort gate)
QLKHEESRGGLVQAGGSLRLSCAASGSTIYTYVMGWYRQAPGNERELVAAISWSGSSTYYADSVKGRFTISRDNAKNTVYLHMNSLKPEDTAVYYCNADPSQHTSAGYSSYEYYYWGQGTQVTVSS	low polyreactivity
QVQLVESGGGLVQAGGSLRLSCAASGSTFKGNTMGWYRQAPGKERELVAAISWRGGSTYYADSVKGRFTISRDNAKNTVYLQMNSMKPEDTAVYYCAAKSHWWWRGYYYLGQGTQVTVSS	high polyreactivity
QVQLVESGGGLVQAGGSLRLSCAASGRTFGLYDMGWYRQAPGKERELVAGITRRGGCTYYADSVKGRFTISRDNAKNTVYLQMYSLKPEDTAVYYCAAGTIYLRHAQSPFDYWGQGTQVTVSS	high polyreactivity
QVQLVESGGGLVQAGGSLRLSCAASGLTFGRYAMGWYRQAPGKERELVAVINGSGGNTYYADSVKGRFTISRDNAKNTVYLQMNSLKPEDTAVYYCAARRTVQYTLYYYPDYNYWGQGTQVTVSS	low polyreactivity
QVQLVESGGGLVQAGGSLRLSCAASGSIFGGYAMGWYRQAPGKERELVAAISRSGGRTYYADSVKGRFTISRDNAKNTVYLQMNSLKPEDTAVYYCNRVTGYDSGDGYWGQGTQVTVSS	high polyreactivity
QVQHVESGGCLVQAGASLRLSCDASGSIFRRNAMGWYRQAPGKERQLVDAITSYGGRTYYADSVKGRFTISRDNAKNTVYFQMNSLKPVDTAVYYCASRYPWGWAMNYWGQGTQVTVSS	high polyreactivity
QVQLVESGGGLVQAGGSLRLSCAASGRTFGVNAMGWYRQAPGKERELVAAISRSGGSTYYADSVKGRFTISRDNAKNTVYLQMNSLKPEDTAVYYCAKSYFGNHLTGFGYWGQGTQVTVSS	low polyreactivity
QVQLVESGGGLVQAGGSLRLSCAASGFIFTDNAMGWYRQAPGKESEFVAAITYSGGSTYYADSVKGRFTISRDNAKNTVYLQMNSLKPEDTAVYYCNKDFFPAPVVVTAYEYEYWGQGSQVTVSS	low polyreactivity
QVQLVESGGGLDQAGGSLRLSCAASGLTFKWYAMGWYRQAPGKERELVAAIRTSAGSTYYADSVKGRFTISRDNAKNTVYLQMNSLKPEDTAVYYCNAVGYVFRYVYQYDYWGQCTQVTVSS	low polyreactivity
QVQLVDSGGGLVQAGGSLRLSCAASGSTFTYNSMGGYRQAPGKERELVAAITWSSDITYYADSVKGRFTISRDNAKNTVYLQMNSLIAEDTAVYYCAAYLFGPSIDDYPAFYYDYGYWGQGTQVTVSS	low polyreactivity
QDQLVETAGGLVQAGVTHTLSCAASAFTFRNYAMGWYRQAPGKESEFVAAISRRGGSTYYADSVKGRFTISRDNAKNTVYLQLNCLKPEDTAVYYCATEPGKQNTYRMDYWGQGTQVTVSS	high polyreactivity
QVQLVESGGGLVQAGGSLRLSCAASGRTFVYYDMGWYRQAPGKERELVASISSGDSTNYADSVKGRFTISRDNAKNTVYLQMNSLKPEDTAVYDCAARGYLRGEQLYVFIRYDYWGQGTQVTVSS	low polyreactivity
QVQLVESGGGLVQAGGSLRFSCAASGFIFSAYAMGWYRPAPGKERELVAAITWNGGSTYYADSVKGRFTISRDNAKNTVYLQMNSLKPEDTAVYYCNAVIKQHYIKYSYWGQGTQVTVSS	high polyreactivity
QVQLVESGGGLVQAGGSLRLSCAASGFTFVYNALGWYRQAPGKERELVAAISGSGGSTYYADSVKGRFTISRDNAKNTVYLQMNSLKPEDTSVYYCNAVPSWRWEYDHWGQGTQVTVSS	high polyreactivity
QVQLVESGGGLVQAGGSLRLSCAASGRIFYYNAMGWYRQAHGKERELVAAISFSDGSTYYADSVKGRFTISRDNAKNTVYLQMNSLKPEDTAVYYCAADIGYDYDYWGQGTQVTVSS	low polyreactivity
QVQLVESGGGLVQAGGSLRLSCAASGRILVTYAMGWYRQAPGKERELVAAITRGTNTNYADSVKGRFTISRDNAKNTVYLQMNSLKPEDTAVYYCAARRYRYRYGYGGDYWGQGTQVTVSS	high polyreactivity
QVQLVESGGGLVQAGGSLRLSCAASGLTFTGYAMGWYRQAPGKERELVAAISRGDSTYYAYSVNGRFTISRDNAKNTVYLQMNSLKPEDTAVYYCAAYKGYGRRPGVSGYYWGQGTQVTVSS	high polyreactivity
QVQLVESGGGLVQAGGSLRLICAASGITFDGYAMGWYRQAPGKERELVAAISWSGGRTYYADSVKGRFTISRDNAKNTVYLQMNSLKPEDTAVYYCAVYRRGVVYLLTSGVDYWGQGTQVTVSS	high polyreactivity
QVQLVESGGGLVQAGGSLRLSCAASGRTFFGYAMGWYRQAPGKERELVATISGSGASTYYADSVKGRFTISRDNAKNTVYLQMNSLKPEDTAVYYCAVRLYFYQRNYYSWGQGTQVTVSS	high polyreactivity
QVQLVESGGGLVQAGGSLRLSCAASGFTFAFYAMGWYRQAPGKERELVDAIRRTGSTNYADSVKGRFTISRDNAKNTVYLQMNSLKPEDNAVYYCAKTLWYDRGVGYWGQGTQVTVSS	high polyreactivity
QVQLVESGGGLVQAGGSLRLSCAASGSTFDVNAMGWYRQAPGKERELVAAISFSGGSTYYADSVKGRFTISRDNAKNTVYLQMNSLKPEDTAVYYCAAEEWRSYYEEYDYWGQGTQVTVSS	low polyreactivity
QVQHVESGGGLVQAGVSLRLSCAASGFTFHRNAMGWSTQAPGKERELLAAITMKGGSSTYYADSVKGRFTISRDNAKNTVYLQMNSLKPEDTAVYYCARDSYSYTFSKNSDPAEYDYWGQGTQVTLSS	low polyreactivity

Sequence	polyreactivity (PSR sort gate)
QVQLVESGGGLVQAGGSLRLSCAASGSIFVTYAMGGYRQAPGKERELVAAISTSGGSTYADSVKGRFTISRDNAKNTVYLQMNSLKPEDTAVYYCNADDPGYAVPWYWFKFDYWGQGTQVTVSS	low polyreactivity
QVQLVESGGGLVQAGGSLRLSCAASGFIFLVNAMGWYRRGPGTERELVAAISKSTGGTYYADSVKGRFTISRDNAKNTVYLQMNSLKPEDTAVYYCAADEVYPVQRDMDYWGQGTQVTVSS	low polyreactivity
QVQLVESGGGLVQAGGSLRLSCAASGRTFVSYVMGWYRQAPGKERAFVAAISRSGGNTYYADSVKGRFTMSRDNAKNTVYLQMNSLKPEDTAVDYCAAKLGPLVYDHDYWGQGTQVTVSS	high polyreactivity
QVQLVESGGGLVQAGGSLSLSCAASGLNFVKNTMGWYRQAPGKETELVAGISQRGGSTYYADSEKGRFTISRDNAKNTVYLQMNSLKPEETAVYYCAAYSRTFEGHRGGYWGQGTQVTVSS	high polyreactivity
QVQLVESGGGLVQAGGSLRLSCAASGFTFSWYAMGWYRQAPGKERELVAVITGAGITDYADSVKGRFTISRDNAKNTVYLQMNSLKPEDTAVYYCNAKSDRGVSGSGSGAYDYWGQGTQVTVSS	low polyreactivity
QVQLVESGGGIVQAGGSLRLSCAASGSIFGGNALGWDRQAPGKERELVAAITWSGTSTYYADSVKGRFTISRDNAKNTVYLQMNSLKPEDTAVYYCNADYKSTDFRYSGSRNYWGQGTQVTVSS	low polyreactivity
QVQHVESGGALVQAGGSLRLSCAASGITFDYYVMGWYRTAPGKERELVAGISSGGSTYYADSVKGRFTISRDNAKNTVYLQMNSLKPEDTAVYYCNARRRRLVSVGYYYNYDYWGQGTQVTVSS	high polyreactivity
QVQLVQSGGGLVQAGGSLRLSCAASGRIFADNAMGWYRQAPGKERELVADITYSGGSTYYADSVKGRFTISRDNAKNTVYLQMNILKPEDTVVYYCAAGRSSLYFPGYYYWGQGTLVTVSS	low polyreactivity
QVQLVESGGGLVQAGGSLRLSCAASGSIFYPYAMGWYRQAPGKERELVATISSGVNTNYADSVKGRFTISRDNAKNTVYLQMNSLKPVDTAVYYCAARFRHSFRRGGGYNYDYWGQGTQVTVSS	high polyreactivity
QVQLVESGGRLFQAGGSLRLSCAASGFTTSAYTKGWYRQAPGKERELVAVISARGGSTSYADSVKGRFTISRDNAKNPVYLQMKCRKPEDTAVFYCAARGRAHWHYDYWGHGTQVTVSS	high polyreactivity
QVQLVESGGGLVQAGGSLSLSSAASGFIFHTYAMRWYRQAPGKERELVASITWRGGRTYYADSVKGRFTISRDNAKNTVYLQLNSLNPVYTAVYYCAAVTFSYDGYDYWGQGTQVTVSS	low polyreactivity
QVQHVESVGGLVQAGGSLRLSCAASGRTFTSYDMGWYRQAPLTEREVVAAITGSYTYYADSVKGRFTISRDNAKNTVYLQFNSLKPEDTAVYYCAADEDDVVSGFLRYFYVSYYYWGQGTQVTVSS	low polyreactivity
QVQLVESGGGLVQAGGSLRLSCAASGLTLRNYAMGWYRQAPGKERELVAAITTGGGRTYYADSVKGRFTISRDYAKNTVFLQMKSLKPEDTAVYYCAAEGAILSSDKQSLWRFDYWGQGTQVTVSS	low polyreactivity
QVQLVESGGGLVQAGGSLRLSCAASGRTFYSYAKGWYRQAPGKERELVASITSTGSTYYADSVKGRFTISRDNAKNTVYLQMNSLKPEDTAVYYCAARRQPRYSQRSTYYYWGQGTQVTVSS	high polyreactivity
QVQLVESGGGLVQAGGSLRLSCAASGSIFESNDMGWYRQAPGKERELVAAYADSVKGRFTISRDNAKNTVYLQMNSLKPEDTAVYYCAKSLSLYVVPLYEYWGQGTQVTVSS	low polyreactivity
QVQIVKSGGGLVQAGGSLRLSCAASGFIIPEYTMGWYRQAPGKERELVAAISGSGGSTYYADSVKGRFTISRDNAKNTVYLQMNSLIPEDTAVYYCIAPVYTADGYRYGSVRFGYWGQGTQVTVSS	low polyreactivity
QVQLVESGGGLVQAGGSLRLICAASGRIFRQNAMGWYRQEPGKERELVASISSGGNTYYADSVKGRFTISRDNAKNTVYLEMNSLKPEDTAVYYCAAAKQRYYRWWTTPGYDYWGQGTQVTVSS	low polyreactivity
QVQLVESGGGLVQAGGSLRLSCAASGSTFDYYAMGWYRQAPGKERELVAAISRTGGRTYYADSVKGRFTISRDNAKNTVYLQMNSLKPEDTAVYYCATRNGRQYSVSYRYYYWGQGTQVTVSS	low polyreactivity
QVQLVESGGGLVQAGGSLRLSCAASGGIFWAYAMGWYRQAPGKERELVAAITTRGTSTYYADSVKGRFTISCDNAKNTVYLQMNSLKPEDTAVYYCAAALYGYYSTLTTYWGQGTQVTVSS	high polyreactivity
QVQLVESGGGLVQAGGSLRLSCSASGSIFGSYAMGWYRQAPGKERELVARINTRGGSTYYADSVKGRFTISRDNAKYTVYIQMNSLKPADTAVYYCAKERRASVVRYDYWGQGTQVTVSS	low polyreactivity
QVQLVESGGGLVQAGGSLRLSCAASGRIFVYNVMGWSRQSPGKERELVAAISWGTGSTYADSVKGRFTISRDNAKNTVYLQMNSLKPEDTAVYYCAADWLSTKNDYWGQGTQVTVSS	low polyreactivity
